Experimental findings from article PMC8551079 are described below.

Series [1] deals with T1, MYB70 (Arabidopsis thaliana, UniProt O22179 1-309). As to the kind of experiment: EMSA. Background: In EMSA bound probe runs differently from free probe, usually more slowly.
Series [2] has as its target T1, MYB70. Put plainly: EMSA. This is another data set of the same source.

Read-outs that look alike come from different tables or passages of the source.

B1: GH3.3 probe (dsDNA)
DNA 1: ATCAAGAATTAGTTTTAGTTATCAATAAATAGGA
DNA 2: TCCTATTTATTGATAACTAAAACTAATTCTTGAT
On to B1, for which the binding result in the series with MYB70 [1] was “binds”.

B2: GPAT5 probe (dsDNA)
DNA 1: AATCATAGTTTTGTTACAAGCGAAATCTGAAA
DNA 2: TTTCAGATTTCGCTTGTAACAAAACTATGATT
For the molecule B2, in the series with MYB70 [2], the binding result was “binds”.

B3: PER57 probe (PER probe) (dsDNA)
DNA 1: GCCTCAACTAATAAGTTGTTATGTGCAA
DNA 2: TTGCACATAACAACTTATTAGTTGAGGC
Turning to B3, in the series with MYB70 [2], the binding result was “binds”.
